We go through 65 substances from patent US10472401B2, “Peptides and combination of peptides for use in immunotherapy against ovarian cancer and other cancers” (immatics biotechnologies GmbH, priority 2015, dated 2019).

The assay deals with HLA-A*02:01 (Homo sapiens, UniProt P04439, D140Y/D185E/D98H/E176V/E277Q/G131W/G231S/I119V/I121R/I166T/I218V/L300P/L318F/N151K/N90K/P208A/P217A/Q86G/Q94H/R138H/R169H/T345S). Kind of assay: MHC binding assay (UV-ligand exchange, ELISA of stabilized MHC complexes). As to conditions: MHC class I binding score; binding to HLA-A*02:01 ranged by peptide exchange yield (UV-ligand exchange, ELISA). From the text:
Candidate peptides for T cell based therapies according to the present invention were further tested for their MHC binding capacity (affinity). The individual peptide-MHC complexes were produced by UV-ligand exchange, where a UV-sensitive peptide is cleaved upon UV-irradiation, and exchanged with the peptide of interest as analyzed. Only peptide candidates that can effectively bind and stabilize the peptide-receptive MHC molecules prevent dissociation of the MHC complexes. To determine the yield of the exchange reaction, an ELISA was performed based on the detection of the light chain (β2m) of stabilized MHC complexes. The assay was performed as generally described in Rodenko et al. (Rodenko et al., 2006).
96 well MAXISorp plates (NUNC) were coated over night with 2 ug/ml streptavidin in PBS at room temperature, washed 4× and blocked for 1h at 37° C. in 2% BSA containing blocking buffer. […] Peptide-MHC monomers of the UV-exchange reaction were diluted 100 fold in blocking buffer. Samples were incubated for 1h at 37° C., washed four times, incubated with 2 ug/ml HRP conjugated anti-82m for 1h at 37° C., washed again and detected with TMB solution that is stopped with […]. Absorption was measured at 450 nm. Candidate peptides that show a high exchange yield (preferably higher than 50%, most preferred higher than 75%) are generally preferred for a generation and production of antibodies or fragments thereof, and/or T cell receptors or fragments thereof, as they show sufficient avidity to the MHC molecules and prevent dissociation of the MHC complexes.
For “35 (KINDTIYEV; listed as Homo sapiens) [compound 35]”, the Peptide exchange result is listed as “″+++″ (≥50% = +++)”.

Consider “39 (SVAPNLPAV; listed as Homo sapiens) [compound 39]”, for which the Peptide exchange entry is “″+++″ (≥50% = +++)”.

Consider “40 (TLLVKVFSV; listed as Homo sapiens) [compound 40]”, for which the Peptide exchange entry is recorded as “″+++″ (≥50% = +++)”.

On to “41 (SLMPHIPGL; listed as Homo sapiens) [compound 41]”, for which the Peptide exchange result is on record as “″+++″ (≥50% = +++)”.

Consider “42 (VLLQKIVSA; listed as Homo sapiens) [compound 42]”, for which the Peptide exchange result is recorded as “″+++″ (≥50% = +++)”.

In the case of “43 (VLSSLEINI; listed as Homo sapiens) [compound 43]”, the Peptide exchange entry is recorded as “″++″ (≥20% = ++)”.

In the case of “44 (ILDPISSGFLL; listed as Homo sapiens) [compound 44]”, the Peptide exchange result is “″++″ (≥20% = ++)”.

In the case of “45 (SLWQDIPDV; listed as Homo sapiens) [compound 45]”, the Peptide exchange entry is given as “″+++″ (≥50% = +++)”.

For “46 (ILTEENIHL; listed as Homo sapiens) [compound 46]”, the Peptide exchange entry was “″+++″ (≥50% = +++)”.

In the case of “47 (ILLSVPLLVV; listed as Homo sapiens) [compound 47]”, the Peptide exchange result was “″++″ (≥20% = ++)”.

Consider “49 (YLPAVFEEV; listed as Homo sapiens) [compound 49]”, for which the Peptide exchange result is given as “″+++″ (≥50% = +++)”.

Consider “50 (SLSELEALM; listed as Homo sapiens) [compound 50]”, for which the Peptide exchange result is recorded as “″+++″ (≥50% = +++)”.

Regarding “51 (LLPDLEFYV; listed as Homo sapiens) [compound 51]”, the Peptide exchange entry is reported as “″++++″ (≥75% = ++++)”.

Regarding “52 (FLLAHGLGFLL; listed as Homo sapiens) [compound 52]”, the Peptide exchange entry is recorded as “″++++″ (≥75% = ++++)”.

“53 (KMIETDILQKV; listed as Homo sapiens) [compound 53]”: the Peptide exchange entry is reported as “″++++″ (≥75% = ++++)”.

Consider “54 (SLLEQGKEPWMV; listed as Homo sapiens) [compound 54]”, for which the Peptide exchange result was “″+++″ (≥50% = +++)”.

Consider “55 (SLLDLETLSL; listed as Homo sapiens) [compound 55]”, for which the Peptide exchange result is “″++++″ (≥75% = ++++)”.

As for “57 (TLAELQPPVQL; listed as Homo sapiens) [compound 57]”, the Peptide exchange entry is recorded as “″+++″ (≥50% = +++)”.

On to “59 (IMEDIILTL; listed as Homo sapiens) [compound 59]”, for which the Peptide exchange entry is reported as “″+++″ (≥50% = +++)”.

Consider “61 (FLQGYQLHL; listed as Homo sapiens) [compound 61]”, for which the Peptide exchange result is reported as “″++++″ (≥75% = ++++)”.

Turning to “62 (VLLDVSAGQLLM; listed as Homo sapiens) [compound 62]”, the Peptide exchange entry is given as “″++++″ (≥75% = ++++)”.

On to “63 (YLLPSGGSVTL; listed as Homo sapiens) [compound 63]”, for which the Peptide exchange entry is given as “″++″ (≥20% = ++)”.

With “64 (YAAPGGLIGV; listed as Homo sapiens) [compound 64]”, the Peptide exchange entry is on record as “″++″ (≥20% = ++)”.

On to “66 (FLDENIGGVAV; listed as Homo sapiens) [compound 66]”, for which the Peptide exchange entry is reported as “″+++″ (≥50% = +++)”.

Turning to “67 (TLLAEALVTV; listed as Homo sapiens) [compound 67]”, the Peptide exchange entry is on record as “″+++″ (≥50% = +++)”.

“68 (SLMELPRGLFL; listed as Homo sapiens) [compound 68]”: the Peptide exchange entry is listed as “″++++″ (≥75% = ++++)”.

Regarding “69 (FQLDPSSGVLVTV; listed as Homo sapiens) [compound 69]”, the Peptide exchange entry is listed as “″+++″ (≥50% = +++)”.

With “70 (GLLDYPVGV; listed as Homo sapiens) [compound 70]”, the Peptide exchange entry is recorded as “″+++″ (≥50% = +++)”.

For the substance “71 (GILARIASV; listed as Homo sapiens) [compound 71]”, the Peptide exchange entry was “″+++″ (≥50% = +++)”.

Regarding “72 (SLLELDGINL; listed as Homo sapiens) [compound 72]”, the Peptide exchange result is listed as “″+++″ (≥50% = +++)”.

Take “73 (NIFDLQIYV; listed as Homo sapiens) [compound 73]”: the Peptide exchange entry is on record as “″+++″ (≥50% = +++)”.

As to “74 (ALLDPEVLSIFV; listed as Homo sapiens) [compound 74]”, the Peptide exchange entry is on record as “″+++″ (≥50% = +++)”.

For the substance “75 (GLLEVMVNL; listed as Homo sapiens) [compound 75]”, the Peptide exchange entry is listed as “″+++″ (≥50% = +++)”.

With “76 (ILIDSIYKV; listed as Homo sapiens) [compound 76]”, the Peptide exchange entry is listed as “″+++″ (≥50% = +++)”.

As for “77 (ILVEADGAWVV; listed as Homo sapiens) [compound 77]”, the Peptide exchange result is given as “″++++″ (≥75% = ++++)”.

As for “78 (SLFSSLEPQIQPV; listed as Homo sapiens) [compound 78]”, the Peptide exchange result is “″+++″ (≥50% = +++)”.

As to “80 (FLYDNLVESL; listed as Homo sapiens) [compound 80]”, the Peptide exchange result was “″++″ (≥20% = ++)”.

Turning to “81 (FLFSQLQYL; listed as Homo sapiens) [compound 81]”, the Peptide exchange entry was “″++″ (≥20% = ++)”.

In the case of “82 (FLSSVTYNL; listed as Homo sapiens) [compound 82]”, the Peptide exchange result is “″+++″ (≥50% = +++)”.

On to “83 (ILAPTVMMI; listed as Homo sapiens) [compound 83]”, for which the Peptide exchange result was “″+++″ (≥50% = +++)”.

For the substance “84 (VTFGEKLLGV; listed as Homo sapiens) [compound 84]”, the Peptide exchange entry is listed as “″++″ (≥20% = ++)”.

“85 (KMSELRVTL; listed as Homo sapiens) [compound 85]”: the Peptide exchange entry is listed as “″+++″ (≥50% = +++)”.

Consider “86 (NLIGKIENV; listed as Homo sapiens) [compound 86]”, for which the Peptide exchange result is listed as “″+++″ (≥50% = +++)”.

In the case of “87 (ALPEAPAPLLPHIT; listed as Homo sapiens) [compound 87]”, the Peptide exchange entry is “″++″ (≥20% = ++)”.

“88 (FLLVGDLMAV; listed as Homo sapiens) [compound 88]”: the Peptide exchange result is recorded as “″+++″ (≥50% = +++)”.

Regarding “89 (YILPTETIYV; listed as Homo sapiens) [compound 89]”, the Peptide exchange result is recorded as “″++++″ (≥75% = ++++)”.

In the case of “90 (TLLQIIETV; listed as Homo sapiens) [compound 90]”, the Peptide exchange entry was “″+++″ (≥50% = +++)”.

Take “91 (IMQDFPAEIFL; listed as Homo sapiens) [compound 91]”: the Peptide exchange result is listed as “″++++″ (≥75% = ++++)”.

Regarding “92 (YLIPFTGIVGL; listed as Homo sapiens) [compound 92]”, the Peptide exchange result is “″++″ (≥20% = ++)”.

In the case of “93 (LLQAIKLYL; listed as Homo sapiens) [compound 93]”, the Peptide exchange result is given as “″++″ (≥20% = ++)”.

Regarding “94 (YLIDIKTIAI; listed as Homo sapiens) [compound 94]”, the Peptide exchange result was “″++″ (≥20% = ++)”.

Consider “95 (SVIPQIQKV; listed as Homo sapiens) [compound 95]”, for which the Peptide exchange result is reported as “″+++″ (≥50% = +++)”.

For “96 (YIFTDNPAAV; listed as Homo sapiens) [compound 96]”, the Peptide exchange entry is given as “″+++″ (≥50% = +++)”.

As to “97 (SLINGSFLV; listed as Homo sapiens) [compound 97]”, the Peptide exchange result is listed as “″+++″ (≥50% = +++)”.

In the case of “98 (LIIDQADIYL; listed as Homo sapiens) [compound 98]”, the Peptide exchange result is given as “″+++″ (≥50% = +++)”.

As for “99 (ALVSKGLATV; listed as Homo sapiens) [compound 99]”, the Peptide exchange result is “″++″ (≥20% = ++)”.

“100 (YLLSTNAQL; listed as Homo sapiens) [compound 100]”: the Peptide exchange result is on record as “″++++″ (≥75% = ++++)”.

For the substance “101 (ILVGGGALATV; listed as Homo sapiens) [compound 101]”, the Peptide exchange result is given as “″+++″ (≥50% = +++)”.

With “102 (YLFESEGLVL; listed as Homo sapiens) [compound 102]”, the Peptide exchange entry is given as “″+++″ (≥50% = +++)”.

With “103 (TLAEEVVAL; listed as Homo sapiens) [compound 103]”, the Peptide exchange result is recorded as “″+++″ (≥50% = +++)”.

As for “104 (STMEQNFLL; listed as Homo sapiens) [compound 104]”, the Peptide exchange entry was “″++++″ (≥75% = ++++)”.

Consider “106 (LLYDAVHIVSV; listed as Homo sapiens) [compound 106]”, for which the Peptide exchange result was “″+++″ (≥50% = +++)”.

On to “107 (FLQPVDDTQHL; listed as Homo sapiens) [compound 107]”, for which the Peptide exchange entry was “″+++″ (≥50% = +++)”.

On to “108 (ALFPGVALLLA; listed as Homo sapiens) [compound 108]”, for which the Peptide exchange result is “″++++″ (≥75% = ++++)”.

For the substance “109 (IILSILEQA; listed as Homo sapiens) [compound 109]”, the Peptide exchange result is reported as “″++++″ (≥75% = ++++)”.
